{"source": "paper PMC9508527", "about": "“Two-component carnitine monooxygenase from Escherichia coli: functional characterization, inhibition and mutagenesis of the molecular interface” (Bioscience Reports, 2022)", "experiment_in_all_cases": "cell-based or functional assay", "key": {"YeaW variant D135S": {"molecular_target": "T1, YeaW variant D135S (E. coli, UniProt P0ABR7 1-374, D135S)", "T1 sequence (looked up)": "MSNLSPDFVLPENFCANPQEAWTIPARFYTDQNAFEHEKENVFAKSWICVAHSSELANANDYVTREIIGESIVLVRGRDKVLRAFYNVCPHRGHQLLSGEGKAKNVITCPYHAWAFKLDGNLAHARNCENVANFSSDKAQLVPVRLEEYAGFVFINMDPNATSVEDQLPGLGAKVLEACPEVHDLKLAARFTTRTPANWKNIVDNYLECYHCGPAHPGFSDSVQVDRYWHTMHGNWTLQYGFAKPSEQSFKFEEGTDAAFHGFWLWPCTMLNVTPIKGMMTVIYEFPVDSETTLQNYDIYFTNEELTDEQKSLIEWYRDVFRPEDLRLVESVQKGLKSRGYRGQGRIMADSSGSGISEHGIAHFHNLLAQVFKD"}, "YeaW variant R83Q": {"molecular_target": "T2, YeaW variant R83Q (E. coli, UniProt P0ABR7 1-374, R83Q)", "T2 sequence (looked up)": "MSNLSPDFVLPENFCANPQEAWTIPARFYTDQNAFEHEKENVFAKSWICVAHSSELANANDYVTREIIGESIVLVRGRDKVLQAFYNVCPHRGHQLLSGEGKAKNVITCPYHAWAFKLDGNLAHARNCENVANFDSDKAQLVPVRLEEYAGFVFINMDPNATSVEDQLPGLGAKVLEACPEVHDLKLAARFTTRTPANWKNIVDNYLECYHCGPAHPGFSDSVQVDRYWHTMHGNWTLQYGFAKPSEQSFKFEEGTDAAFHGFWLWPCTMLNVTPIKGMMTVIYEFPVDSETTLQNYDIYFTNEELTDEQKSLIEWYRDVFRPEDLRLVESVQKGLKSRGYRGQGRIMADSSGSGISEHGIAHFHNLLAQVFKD"}, "YeaW variant K138S": {"molecular_target": "T3, YeaW variant K138S (E. coli, UniProt P0ABR7 1-374, K138S)", "T3 sequence (looked up)": "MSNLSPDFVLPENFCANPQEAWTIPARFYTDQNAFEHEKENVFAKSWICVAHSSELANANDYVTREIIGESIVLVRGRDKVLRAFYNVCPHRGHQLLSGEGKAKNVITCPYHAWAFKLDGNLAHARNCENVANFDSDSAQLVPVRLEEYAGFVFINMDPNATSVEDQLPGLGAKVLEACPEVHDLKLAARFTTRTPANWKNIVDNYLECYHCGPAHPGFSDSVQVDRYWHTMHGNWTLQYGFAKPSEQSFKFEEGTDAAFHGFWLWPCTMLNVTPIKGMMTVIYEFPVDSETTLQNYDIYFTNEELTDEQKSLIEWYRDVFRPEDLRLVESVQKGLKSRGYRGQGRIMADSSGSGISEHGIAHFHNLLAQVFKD"}, "YeaW variant K138E": {"molecular_target": "T4, YeaW variant K138E (E. coli, UniProt P0ABR7 1-374, K138E)", "T4 sequence (looked up)": "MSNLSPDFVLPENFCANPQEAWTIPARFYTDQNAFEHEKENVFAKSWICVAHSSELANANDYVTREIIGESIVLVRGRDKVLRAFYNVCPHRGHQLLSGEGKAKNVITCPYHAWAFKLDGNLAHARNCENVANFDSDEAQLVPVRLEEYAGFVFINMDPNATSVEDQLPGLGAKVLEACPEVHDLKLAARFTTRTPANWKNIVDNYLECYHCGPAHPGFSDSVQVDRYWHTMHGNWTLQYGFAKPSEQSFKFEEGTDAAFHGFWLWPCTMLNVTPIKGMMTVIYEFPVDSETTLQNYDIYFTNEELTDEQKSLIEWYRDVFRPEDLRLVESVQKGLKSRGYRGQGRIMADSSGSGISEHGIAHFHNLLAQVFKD"}, "YeaW variant D221K": {"molecular_target": "T5, YeaW variant D221K (E. coli, UniProt P0ABR7 1-374, D221K)", "T5 sequence (looked up)": "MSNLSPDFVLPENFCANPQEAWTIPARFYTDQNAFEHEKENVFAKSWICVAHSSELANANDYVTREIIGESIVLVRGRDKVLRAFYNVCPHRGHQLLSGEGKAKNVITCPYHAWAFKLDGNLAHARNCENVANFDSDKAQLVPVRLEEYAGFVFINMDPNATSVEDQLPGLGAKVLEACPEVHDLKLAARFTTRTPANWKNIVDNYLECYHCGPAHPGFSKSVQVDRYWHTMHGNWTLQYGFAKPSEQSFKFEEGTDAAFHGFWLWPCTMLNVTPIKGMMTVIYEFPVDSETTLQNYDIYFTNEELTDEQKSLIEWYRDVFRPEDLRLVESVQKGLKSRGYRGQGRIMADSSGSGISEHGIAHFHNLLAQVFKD"}, "YeaW variant K117S": {"molecular_target": "T6, YeaW variant K117S (E. coli, UniProt P0ABR7 1-374, K117S)", "T6 sequence (looked up)": "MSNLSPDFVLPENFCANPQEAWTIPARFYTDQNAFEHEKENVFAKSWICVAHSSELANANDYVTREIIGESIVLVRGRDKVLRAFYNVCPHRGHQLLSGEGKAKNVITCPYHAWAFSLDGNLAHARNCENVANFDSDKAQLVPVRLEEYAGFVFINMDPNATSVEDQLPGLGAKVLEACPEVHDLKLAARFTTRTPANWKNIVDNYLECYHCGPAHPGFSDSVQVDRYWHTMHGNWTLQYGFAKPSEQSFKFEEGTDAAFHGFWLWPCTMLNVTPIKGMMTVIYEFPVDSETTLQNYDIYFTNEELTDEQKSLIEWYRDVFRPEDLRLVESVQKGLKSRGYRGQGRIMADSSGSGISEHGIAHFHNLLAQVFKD"}, "YeaW variant E330S": {"molecular_target": "T7, YeaW variant E330S (E. coli, UniProt P0ABR7 1-374, E330S)", "T7 sequence (looked up)": "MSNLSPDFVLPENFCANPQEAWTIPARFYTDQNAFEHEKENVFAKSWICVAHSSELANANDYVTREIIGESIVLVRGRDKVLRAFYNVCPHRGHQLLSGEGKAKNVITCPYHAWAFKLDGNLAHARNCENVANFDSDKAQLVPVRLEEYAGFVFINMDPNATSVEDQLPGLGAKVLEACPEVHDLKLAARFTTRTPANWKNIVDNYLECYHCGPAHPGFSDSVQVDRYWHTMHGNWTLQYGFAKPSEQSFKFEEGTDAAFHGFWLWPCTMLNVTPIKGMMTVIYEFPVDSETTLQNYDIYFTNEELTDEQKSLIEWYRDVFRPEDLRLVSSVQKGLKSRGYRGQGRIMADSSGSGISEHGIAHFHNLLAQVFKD"}}}
{"binder": "YeaX, reductase component of carnitine monooxygenase from E. coli (enzyme, UniProt P76254 1-321, looked up) MSDYQMFEVQVSQVEPLTEQVKRFTLVATDGKPLPAFTGGSHVIVQMSDGDNQYSNAYSLLSSPHDTSCYQIAVRLEENSRGGSRFLHQQVKVGDRLTISTPNNLFALIPSARKHLFIAGGIGITPFLSHMAELQHSDVDWQLHYCSRNPESCAFRDELVQHPQAEKVHLHHSSTGTRLELARLLADIEPGTHVYTCGPEALIEAVRSEAARLDIAADTLHFEQFAIEDKTGDAFTLVLARSGKEFVVPEEMTILQVIENNKAAKVECLCREGVCGTCETAILEGEADHRDQYFSDEERASQQSMLICCSRAKGKRLVLDL", "values": [{"measurement": "L-carnitine depletion activity (wild type = 100%)", "setting": "YeaW variant D135S", "value": 106, "unit": "%"}, {"measurement": "O2 depletion activity (wild type = 100%)", "setting": "YeaW variant D135S", "value": 106, "unit": "%"}, {"measurement": "L-carnitine depletion activity (wild type = 100%)", "setting": "YeaW variant R83Q", "value": 51, "unit": "%"}, {"measurement": "O2 depletion activity (wild type = 100%)", "setting": "YeaW variant R83Q", "value": 59, "unit": "%"}, {"measurement": "L-carnitine depletion activity (wild type = 100%)", "setting": "YeaW variant K138S", "value": 96, "unit": "%"}, {"measurement": "O2 depletion activity (wild type = 100%)", "setting": "YeaW variant K138S", "value": 97, "unit": "%"}, {"measurement": "L-carnitine depletion activity (wild type = 100%)", "setting": "YeaW variant K138E", "value": 100, "unit": "%"}, {"measurement": "O2 depletion activity (wild type = 100%)", "setting": "YeaW variant K138E", "value": 102, "unit": "%"}, {"measurement": "L-carnitine depletion activity (wild type = 100%)", "setting": "YeaW variant D221K", "value": 81, "unit": "%"}, {"measurement": "O2 depletion activity (wild type = 100%)", "setting": "YeaW variant D221K", "value": 76, "unit": "%"}, {"measurement": "L-carnitine depletion activity (wild type = 100%)", "setting": "YeaW variant K117S", "value": 122, "unit": "%"}, {"measurement": "O2 depletion activity (wild type = 100%)", "setting": "YeaW variant K117S", "value": 109, "unit": "%"}, {"measurement": "L-carnitine depletion activity (wild type = 100%)", "setting": "YeaW variant E330S", "value": 92, "unit": "%"}, {"measurement": "O2 depletion activity (wild type = 100%)", "setting": "YeaW variant E330S", "value": 85, "unit": "%"}]}
